Measured values as given in publication PMC10445657.

T1: RORα S100D (human, UniProt P35398 1-523, S100D)
T1 sequence: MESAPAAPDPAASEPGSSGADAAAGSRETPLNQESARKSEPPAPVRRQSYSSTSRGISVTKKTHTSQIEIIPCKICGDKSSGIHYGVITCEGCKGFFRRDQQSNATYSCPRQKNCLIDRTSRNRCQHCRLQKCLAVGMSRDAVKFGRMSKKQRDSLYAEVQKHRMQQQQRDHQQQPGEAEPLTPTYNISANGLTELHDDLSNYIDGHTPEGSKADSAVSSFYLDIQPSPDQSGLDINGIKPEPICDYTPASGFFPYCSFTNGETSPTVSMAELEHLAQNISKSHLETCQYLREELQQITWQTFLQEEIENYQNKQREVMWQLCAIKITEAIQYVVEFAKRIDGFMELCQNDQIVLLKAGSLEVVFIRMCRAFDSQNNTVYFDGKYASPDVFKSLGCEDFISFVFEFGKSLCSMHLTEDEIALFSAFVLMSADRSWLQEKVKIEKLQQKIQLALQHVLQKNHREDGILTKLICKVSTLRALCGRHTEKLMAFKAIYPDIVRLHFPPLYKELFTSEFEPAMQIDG

B1: RORE probe (dsDNA)
DNA 1: GATCTCGACTCGTATATCAAGGTCATGCTG
DNA 2: CAGCATGACCTTGATATACGAGTCGAGATC
B2: HRE probe (dsDNA)
DNA 1: GATCTCGACAGTGACCCTTTTAACCAGGTCAGTGAG
DNA 2: CTCACTGACCTGGTTAAAAGGGTCACTGTCGAGATC

Target: T1, RORα S100D
Assay: EMSA

Binder | binding result
B1 | no binding
B2 | no binding
